{
  "source": "patent US6881402",
  "target": "human Fas (human) (UniProt P25445)",
  "sequence (P25445 26-335)": "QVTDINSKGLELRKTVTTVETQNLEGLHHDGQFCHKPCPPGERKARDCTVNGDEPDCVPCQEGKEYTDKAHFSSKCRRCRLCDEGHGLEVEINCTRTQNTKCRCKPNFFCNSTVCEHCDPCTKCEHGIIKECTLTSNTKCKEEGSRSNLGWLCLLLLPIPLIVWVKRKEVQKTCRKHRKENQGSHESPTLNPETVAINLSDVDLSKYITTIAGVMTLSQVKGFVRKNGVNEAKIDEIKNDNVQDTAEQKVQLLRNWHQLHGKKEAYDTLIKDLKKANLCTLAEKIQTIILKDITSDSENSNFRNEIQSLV",
  "experiment": "cell-based or functional assay",
  "data": [
    {"substance": "CH-11 agonist mAb to Fas (Panvera, Madison, WI) (antibody)", "values": [
      {"measurement": "apoptotic nuclei (DAPI) in MCF7-Fas cells transfected with pMT2 alone, treated 9 h with CH-11 (500 ng/ml) plus cycloheximide", "value": 62, "unit": "%"}
    ]}
  ]
}
